Laboratory results taken from patent publication US20100015155A1.

Biological target: human soluble Abeta (1-40) (human) (UniProt P05067)
Assay: KinExA equilibrium, antigen on sepharose beads, soluble Abeta (1-40) titrated, 37 C

Sequence of human soluble Abeta (1-40) (human) (P05067 672-711 limits assumed): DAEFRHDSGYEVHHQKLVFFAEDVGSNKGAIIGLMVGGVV

Kd: 0.24 nM
Substance: murine 266 Fab (Fab fragment of the murine monoclonal antibody designated 266)
